Data taken from IntAct's records for PubMed 26030876.

B1: Autophagy-related protein 101 (Homo sapiens), Q9BSB4 (parent)
chain: MNCRSEVLEVSVEGRQVEEAMLAVLHTVLLHRSTGKFHYKKEGTYSIGTVGTQDVDCDFIDFTYVRVSSEELDRALRKVVGEFKDALRNSGGDGLGQMSLEFYQKKKSRWPFSDECIPWEVWTVKVHVVALATEQERQICREKVGEKLCEKIINIVEVMNRHEYLPKMPTQSEVDNVFDTGLRDVQPYLYKISFQITDALGTSVTTTMRRLIKDTLAL
partner: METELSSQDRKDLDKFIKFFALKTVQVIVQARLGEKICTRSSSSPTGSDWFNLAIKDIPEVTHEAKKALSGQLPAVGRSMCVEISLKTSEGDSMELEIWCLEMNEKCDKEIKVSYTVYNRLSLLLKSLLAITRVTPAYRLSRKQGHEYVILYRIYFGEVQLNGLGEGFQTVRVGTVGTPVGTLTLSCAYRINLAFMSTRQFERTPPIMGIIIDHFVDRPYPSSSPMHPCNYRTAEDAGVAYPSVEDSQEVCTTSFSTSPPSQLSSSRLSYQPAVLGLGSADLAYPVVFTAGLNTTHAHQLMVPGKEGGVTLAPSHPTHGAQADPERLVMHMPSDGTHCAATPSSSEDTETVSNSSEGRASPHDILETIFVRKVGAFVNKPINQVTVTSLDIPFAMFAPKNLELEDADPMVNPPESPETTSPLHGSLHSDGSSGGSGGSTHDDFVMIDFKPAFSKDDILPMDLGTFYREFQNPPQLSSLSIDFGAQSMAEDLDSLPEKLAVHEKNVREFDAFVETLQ

Variants of: B1
Settings: with atg13_mouse Atg13, Q91YI1

effect of a mutation on the interaction	Variant
disrupting interaction strength	L30R;H31R
decreasing interaction strength	T63R
